Results taken from IntAct's records for PubMed 35512704.

B1: Speckle-type POZ protein (Homo sapiens), O43791 (parent)
chain: MSRVPSPPPPAEMSSGPVAESWCYTQIKVVKFSYMWTINNFSFCREEMGEVIKSSTFSSGANDKLKWCLRVNPKGLDEESKDYLSLYLLLVSCPKSEVRAKFKFSILNAKGEETKAMESQRAYRFVQGKDWGFKKFIRRDFLLDEANGLLPDDKLTLFCEVSVVQDSVNISGQNTMNMVKVPECRLADELGGLWENSRFTDCCLCVAGQEFQAHKAILAARSPVFSAMFEHEMEESKKNRVEINDVEPEVFKEMMCFIYTGKAPNLDKMADDLLAAADKYALERLKVMCEDALCSNLSVENAAEILILADLHSADQLKTQAVDFINYHASDVLETSGWKSMVVSHPHLVAEAYRSLASAQCPFLGPPRKRLKQS
partner: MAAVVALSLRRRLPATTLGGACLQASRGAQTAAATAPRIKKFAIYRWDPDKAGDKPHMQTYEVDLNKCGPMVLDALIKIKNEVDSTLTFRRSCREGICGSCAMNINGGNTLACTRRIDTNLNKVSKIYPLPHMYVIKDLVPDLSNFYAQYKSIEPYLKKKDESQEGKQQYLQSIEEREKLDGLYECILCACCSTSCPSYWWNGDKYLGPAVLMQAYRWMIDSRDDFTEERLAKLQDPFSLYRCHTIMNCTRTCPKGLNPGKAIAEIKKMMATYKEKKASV
B2: Speckle-type POZ protein (Homo sapiens), O43791 (parent)
chain: B1 chain
partner: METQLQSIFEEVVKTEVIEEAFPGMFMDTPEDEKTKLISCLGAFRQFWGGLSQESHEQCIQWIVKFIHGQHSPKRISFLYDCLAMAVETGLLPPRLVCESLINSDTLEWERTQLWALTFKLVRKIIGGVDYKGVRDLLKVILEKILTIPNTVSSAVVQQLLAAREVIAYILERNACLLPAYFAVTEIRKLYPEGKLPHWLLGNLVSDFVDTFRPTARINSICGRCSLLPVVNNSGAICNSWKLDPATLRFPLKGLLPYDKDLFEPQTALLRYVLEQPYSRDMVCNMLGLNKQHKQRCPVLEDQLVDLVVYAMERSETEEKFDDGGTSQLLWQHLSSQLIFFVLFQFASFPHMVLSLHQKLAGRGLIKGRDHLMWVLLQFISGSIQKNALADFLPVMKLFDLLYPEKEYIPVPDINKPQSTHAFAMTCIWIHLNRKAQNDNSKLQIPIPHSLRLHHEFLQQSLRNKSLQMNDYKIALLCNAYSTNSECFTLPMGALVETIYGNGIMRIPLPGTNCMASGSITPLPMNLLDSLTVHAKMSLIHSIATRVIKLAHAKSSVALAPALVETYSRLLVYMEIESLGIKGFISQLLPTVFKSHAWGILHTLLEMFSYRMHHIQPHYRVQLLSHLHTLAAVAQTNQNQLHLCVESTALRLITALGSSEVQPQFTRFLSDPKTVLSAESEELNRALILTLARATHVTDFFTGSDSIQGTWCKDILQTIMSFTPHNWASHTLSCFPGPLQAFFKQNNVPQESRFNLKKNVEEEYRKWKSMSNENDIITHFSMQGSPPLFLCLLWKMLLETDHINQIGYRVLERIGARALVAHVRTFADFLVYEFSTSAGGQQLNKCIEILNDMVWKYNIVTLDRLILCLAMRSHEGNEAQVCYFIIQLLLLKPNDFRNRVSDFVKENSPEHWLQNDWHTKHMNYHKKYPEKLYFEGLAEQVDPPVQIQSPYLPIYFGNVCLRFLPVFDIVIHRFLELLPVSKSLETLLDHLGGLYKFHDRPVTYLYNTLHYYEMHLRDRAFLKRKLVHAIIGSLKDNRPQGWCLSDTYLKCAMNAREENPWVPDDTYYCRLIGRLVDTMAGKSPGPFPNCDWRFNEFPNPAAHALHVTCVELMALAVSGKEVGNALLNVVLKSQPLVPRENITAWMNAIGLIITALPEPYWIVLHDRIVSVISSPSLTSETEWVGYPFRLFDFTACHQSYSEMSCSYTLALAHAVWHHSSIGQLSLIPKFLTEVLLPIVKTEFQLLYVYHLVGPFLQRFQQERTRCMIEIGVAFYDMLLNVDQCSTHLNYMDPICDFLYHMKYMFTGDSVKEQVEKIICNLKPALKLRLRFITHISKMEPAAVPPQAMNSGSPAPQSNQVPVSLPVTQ
B3: Speckle-type POZ protein (Homo sapiens), O43791 (parent)
chain: B1 chain
partner: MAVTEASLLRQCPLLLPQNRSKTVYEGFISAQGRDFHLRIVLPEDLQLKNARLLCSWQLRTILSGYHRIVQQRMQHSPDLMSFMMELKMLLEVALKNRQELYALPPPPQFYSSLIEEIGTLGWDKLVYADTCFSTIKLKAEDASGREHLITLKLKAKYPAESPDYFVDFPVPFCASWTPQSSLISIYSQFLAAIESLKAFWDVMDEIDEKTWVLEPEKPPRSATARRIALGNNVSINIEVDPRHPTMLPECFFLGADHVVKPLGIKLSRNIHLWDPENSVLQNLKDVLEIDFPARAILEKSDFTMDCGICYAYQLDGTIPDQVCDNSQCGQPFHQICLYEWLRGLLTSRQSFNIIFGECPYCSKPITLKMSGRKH
B4: Speckle-type POZ protein (Homo sapiens), O43791 (parent)
chain: B1 chain
partner: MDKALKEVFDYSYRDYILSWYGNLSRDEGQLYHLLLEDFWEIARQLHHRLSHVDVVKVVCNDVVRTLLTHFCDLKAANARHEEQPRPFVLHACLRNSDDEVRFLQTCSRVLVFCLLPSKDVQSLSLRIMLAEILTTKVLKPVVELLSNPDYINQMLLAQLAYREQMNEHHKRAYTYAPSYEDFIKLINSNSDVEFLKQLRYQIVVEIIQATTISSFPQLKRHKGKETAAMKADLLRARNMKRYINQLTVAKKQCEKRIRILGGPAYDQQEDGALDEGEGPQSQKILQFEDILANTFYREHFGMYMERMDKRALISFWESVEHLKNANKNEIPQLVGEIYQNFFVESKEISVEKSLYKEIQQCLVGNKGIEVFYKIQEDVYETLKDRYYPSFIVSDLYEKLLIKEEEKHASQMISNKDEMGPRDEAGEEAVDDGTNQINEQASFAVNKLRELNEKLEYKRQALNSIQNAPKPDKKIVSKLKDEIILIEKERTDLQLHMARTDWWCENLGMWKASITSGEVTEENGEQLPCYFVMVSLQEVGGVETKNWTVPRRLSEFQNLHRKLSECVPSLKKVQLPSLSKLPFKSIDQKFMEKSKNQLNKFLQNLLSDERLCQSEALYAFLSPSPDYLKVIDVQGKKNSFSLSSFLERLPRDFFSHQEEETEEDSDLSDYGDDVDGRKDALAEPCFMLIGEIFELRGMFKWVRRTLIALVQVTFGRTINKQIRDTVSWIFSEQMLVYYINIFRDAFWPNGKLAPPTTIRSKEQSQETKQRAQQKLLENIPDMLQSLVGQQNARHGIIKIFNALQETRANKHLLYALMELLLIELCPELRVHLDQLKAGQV
B5: Speckle-type POZ protein (Homo sapiens), O43791 (parent)
chain: B1 chain
partner: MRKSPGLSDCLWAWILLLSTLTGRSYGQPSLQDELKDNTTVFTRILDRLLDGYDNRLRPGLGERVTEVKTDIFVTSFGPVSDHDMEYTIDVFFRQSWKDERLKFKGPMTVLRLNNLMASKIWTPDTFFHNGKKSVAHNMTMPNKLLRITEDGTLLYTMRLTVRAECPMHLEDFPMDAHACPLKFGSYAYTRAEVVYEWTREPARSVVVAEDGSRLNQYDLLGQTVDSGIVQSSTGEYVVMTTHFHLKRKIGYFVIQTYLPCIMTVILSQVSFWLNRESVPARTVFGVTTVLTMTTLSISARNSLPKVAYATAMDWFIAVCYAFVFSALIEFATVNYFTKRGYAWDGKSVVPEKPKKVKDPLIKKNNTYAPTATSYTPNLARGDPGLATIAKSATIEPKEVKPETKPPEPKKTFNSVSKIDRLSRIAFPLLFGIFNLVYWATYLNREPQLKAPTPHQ
B6: Speckle-type POZ protein (Homo sapiens), O43791 (parent)
chain: B1 chain
partner: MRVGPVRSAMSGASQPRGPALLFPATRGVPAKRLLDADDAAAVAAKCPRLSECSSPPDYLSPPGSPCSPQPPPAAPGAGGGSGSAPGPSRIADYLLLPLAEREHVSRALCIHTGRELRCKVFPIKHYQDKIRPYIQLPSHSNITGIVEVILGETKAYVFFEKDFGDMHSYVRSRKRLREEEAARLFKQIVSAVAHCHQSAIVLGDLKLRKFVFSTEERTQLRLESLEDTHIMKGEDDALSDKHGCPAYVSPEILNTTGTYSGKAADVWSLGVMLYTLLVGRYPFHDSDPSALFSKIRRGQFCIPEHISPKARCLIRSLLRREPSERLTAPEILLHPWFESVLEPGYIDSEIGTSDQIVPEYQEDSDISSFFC
B7: Speckle-type POZ protein (Homo sapiens), O43791 (parent)
chain: B1 chain
partner: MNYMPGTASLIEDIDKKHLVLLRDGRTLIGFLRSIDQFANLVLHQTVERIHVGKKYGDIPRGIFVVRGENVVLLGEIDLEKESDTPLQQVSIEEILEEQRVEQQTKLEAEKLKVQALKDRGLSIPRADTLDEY

Variants of: B1
Details: with sdhb_human SDHB

Variant | effect of a mutation on the interaction
F102C | with no effect

Variants of: B1
Details: with sdhb_human SDHB
Remark: another data set of the same source

Variant | effect of a mutation on the interaction
F133L | with no effect

Variants of: B1
Details: with sdhb_human SDHB
Remark: another data set of the same source

Variant | effect of a mutation on the interaction
F133V | with no effect

Variants of: B2
Details: with med23_human MED23, Q9ULK4

Variant | effect of a mutation on the interaction
F133L | with no effect

Variants of: B2
Details: with med23_human MED23, Q9ULK4
Remark: another data set of the same source

Variant | effect of a mutation on the interaction
F133V | with no effect

Variants of: B3
Details: with fancl_human FANCL

Variant | effect of a mutation on the interaction
F133L | with no effect

Variants of: B3
Details: with fancl_human FANCL
Remark: another data set of the same source

Variant | effect of a mutation on the interaction
Y87C | with no effect

Variants of: B4
Details: with snx25_human SNX25, Q9H3E2

Variant | effect of a mutation on the interaction
F133V | with no effect

Variants of: B4
Details: with snx25_human SNX25, Q9H3E2
Remark: another data set of the same source

Variant | effect of a mutation on the interaction
F133L | with no effect

Variants of: B4
Details: with snx25_human SNX25, Q9H3E2
Remark: another data set of the same source

Variant | effect of a mutation on the interaction
Y87C | with no effect

Variants of: B4
Details: with snx25_human SNX25, Q9H3E2
Remark: another data set of the same source

Variant | effect of a mutation on the interaction
F102C | with no effect

Variants of: B5
Details: with gbra1_human GABRA1, P14867

Variant | effect of a mutation on the interaction
Y87C | with no effect

Variants of: B6
Details: with trib1_human TRIB1, Q96RU8

Variant | effect of a mutation on the interaction
Y87C | with no effect

Variants of: B6
Details: with trib1_human TRIB1, Q96RU8
Remark: another data set of the same source

Variant | effect of a mutation on the interaction
F102C | with no effect

Variants of: B6
Details: with trib1_human TRIB1, Q96RU8
Remark: another data set of the same source

Variant | effect of a mutation on the interaction
F133V | causing an interaction

Variants of: B6
Details: with trib1_human TRIB1, Q96RU8
Remark: another data set of the same source

Variant | effect of a mutation on the interaction
F133L | causing an interaction

Variants of: B7
Details: with lsm1_human LSM1, O15116

Variant | effect of a mutation on the interaction
Y87C | with no effect

Variants of: B7
Details: with lsm1_human LSM1, O15116
Remark: another data set of the same source

Variant | effect of a mutation on the interaction
F133V | with no effect
